The target in assay [1] is T1, soluble EGF-r purified from A431 cell membranes (Sigma, E-3641) (human, UniProt P00533 25-1210, limits assumed).
T1 construct: The BIAcore methods say that either this protein or the recombinant extracellular domain of EGFr was immobilized; also called purified A431 cell membrane-derived EGFr protein
The experiment in a line: BIAcore, solid phase, antigen immobilized at 228 RU.
Procedure: Determination of affinity constants of fully human Mabs by BIAcore: Affinity measurement of purified human monoclonal antibodies, Fab fragments, or hybridoma supernatants by plasmon resonance was carried out using the BIAcore 2000 instrument, using general procedures outlined by the manufacturers.
Based upon the general procedures outlined by the manufacture, kinetic analyses of the antibodies were performed using antigens immobilized onto the sensor surface at a low density. […] The dissociation (kd or koff) and association (ka or kₒₙ) rates were determined using the software provided by the manufacturer (BIA evaluation 2.1).

For assay [2], the target named is T1, soluble EGF-r purified from A431 cell …. The experiment in a line: in solution by ELISA, Scatchard analysis.
Procedure: After incubation, 70 μl of each mixture was transferred into the wells of 96-well microtiter plates previously coated with the same monoclonal antibody (100 μl/well, at 2 μg/ml in coating buffer) and incubated for 15 min at room temperature.
Assay [3] concerns the target T2, human epidermal growth factor receptor (EGF-r) on the surface of human carcinoma cells (A431, SW948, … (human, UniProt P00533 25-1210)).
T2 construct: whole, on cells; also called surface expressed EGF-r
The experiment in a line: inhibition of 125I-EGF binding to A431 cells (FIG. 36).

Assay [4] concerns the target T1, soluble EGF-r purified from A431 cell …. Kind of assay: solid phase (BIAcore) and solution measurements. In general terms: Surface plasmon resonance follows binding to a sensor surface in real time, without labels.
In assay [5] the target is T2, human epidermal growth factor receptor …. The experiment in a line: inhibition of [125I]EGF binding to SW948 cells.
Assay [6] shares this target. Kind of assay: inhibition of [125I]EGF (0.1 nM) binding to A431 cells.
Source text: The plates were washed five times, air-dried and counted in a scintillation counter.
Assay [7] has as its target T1, soluble EGF-r purified from A431 cell …. Kind of assay: BIAcore, solid phase, antigen immobilized at 818 RU.

Where a chain is given by its changes, count along the chain named.

The Kd is the constant that tells how readily two partners part at equilibrium. A higher Kd goes with weaker binding. The koff is a measure of how fast the partners let go of each other. In general, kon refers to a measure of how fast the partners come together. The IC50 is the point on the concentration scale where inhibition reaches its midpoint. Low readings indicate inhibition by little substance, high ones a need for much substance.

B1: antibody secreted by the hybridoma E2.11 (antibody, human IgG2, V domains shown)
VH: VSGGSVSSGDYYWSWIRQPPGKGLEWIGHLYYSGNTNYNPSLKSRVTISLDTSKNQFSLKLSSVTAADTAVYYCARDFLTGSFFDYWGQGTLVTVSS
VL: TITCQASQDISNYLNWYQQKPGKAPKLLINDASDLETGVPSRISGSGSGTDFTFTISNLQPEDIATYYCQQYDSLPLTFGGGTKVEIRR
notes: Fully human IgG2 with a kappa light chain
In the case of B1, in assay [1], the affinity, expressed as Kd, was 0.16 nM; the dissociation rate constant (koff) is 0.0003 s⁻¹; the association rate constant (kon) amounted to 1.9e+06 M⁻¹ s⁻¹. Besides, the Kd in assay [2] turned out to be 0.11 nM. Besides, the “concentration at which inhibition of EGF binding begins” value (shortened to “concentration at which inhibition”) in assay [3] is around 8 nM.

B2: antibody secreted by the hybridoma E7.6.3 (antibody, human IgG2, V domains shown)
VH: VSGGSVSSGDYYWTWIRQSPGKGLEWIGHIYYSGNTNYNPSLKSRLTISIDTSKTQFSLKLSSVTAADTAIYYCVRDRVTGAFDIWGQGTMVTSS
VL: B1 VL with N30Y, D34N, I43F, N58S, Y68F, Q71H, Y72F, S74H, T78A, R88K
notes: Fully human IgG2 with a kappa light chain; also called E7.6.3 MAb
For B2, the Kd in assay [4] worked out at 0.05 nM. Moreover, the values for the concentration for half-maximal inhibition (IC50) in assay [5] and in assay [6] were 0.9 nM and 3 nM, respectively.

B3: antibody secreted by the hybridoma E1.1 (antibody, human IgG2, V domains shown)
VH: VSGGSINSGDYYWSWIRQHPGKGLDCIGYIYYSGSTYYNPSLKSRVTISVDTSKNQFFLKLTSVTAADTAVYYCARSTVVNPGWFDPWGQGTLVTVSS
VL: B1 VL with S11N, Y17F, L27V, N30H, D34N, V39G, I43F, N58G, D73E, R88K
notes: as for B1
With B3, in assay [2], the equilibrium dissociation constant (Kd) came out at 0.11 nM. Moreover, in assay [3], the “concentration at which inhibition” value was around 8 nM.

B4: antibody secreted by the hybridoma E2.4 (antibody, human IgG2, V domains shown)
VH: VSGGSINSGDYYWSWIRQHPGKGLEWIGSIYYSGNTFYNPSLKSRVTISLDTSKNQFSLKLSSVTAADTAVCYCARNIVTTGAFDIWGQGTMVTVSS
VL: B1 VL with S11T, N12I, D34S, S41L, I43F, N58S, S74H, E86A, R88K
notes: as for B1
In assay [7], B4 showed a dissociation constant (Kd) of 0.035 nM, an off-rate constant (koff) of 9.78e-05 s⁻¹ and an on-rate constant (kon) of 2.8e+06 M⁻¹ s⁻¹. Moreover, in assay [2], binding was characterised by a dissociation constant (Kd) of 0.11 nM. In assay [3], the “concentration at which inhibition” value is around 8 nM.

The record behind these values is patent US20060183887A1 (Amgen, published 2006).
